Sequences and labels used below:
B1: Streptococcus pneumoniae ParE44 ATPase domain (residues 1-402) (domain or fragment, UniProt Q59961 1-402, looked up)
chain: MSKKEININNYNDDAIQVLEGLDAVRKRPGMYIGSTDGAGLHHLVWEIVDNAVDEALSGFGDRIDVTINKDGSLTVQDHGRGMPTGMHAMGIPTVEVIFTILHAGGKFGQGGYKTSGGLHGVGSSVVNALSSWLEVEITRDGAVYKQRFENGGKPVTTLKKIGTAPKSKTGTKVTFMPDATIFSTTDFKYNTISERLNESAFLLKNVTLSLTDKRTNEAIEFHYENGVQDFVSYLNEDKEILTPVLYFEGEDNGFQVEVALQYNDGFSDNILSFVNNVRTKDGGTHETGLKSAITKVMNDYARKTGLLKEKDKNLEGSDYREGLAAVLSILVPEEHLQFEGQTKDKLGSPLARPVVDGIVADKLTFFLMENGELASNLIRKAIKARDAREAARKARDESRNG
notes: ParE subunit of topoisomerase IV, Streptococcus pneumoniae, UniProt Q59961, residues 1-402 (ATPase domain); Crystallised as a closed dimer with AMP-PNP, Mg2+ and duplex DNA; also called ParE ATPase domain; N-terminal ParE44; source: E. coli BL21 λDE3, purified (Ni-NTA)
B2: 6-mer GCGCGC duplex (dsDNA)
DNA 1: GCGCGC
DNA 2: GCGCGC
B3: 14-mer T-segment duplex (dsDNA)
DNA 1: GCATATATATATGC
DNA 2: GCATATATATATGC

Data on 16 molecules can be found in publication PMC6030046, “Trapping of the transport-segment DNA by the ATPase domains of a type II topoisomerase” (Nature Communications, 2018).

The first data set concerns the molecule itself. Put plainly: crystal structure; ParE44 co-crystallised with 14-mer duplex DNA 5'-…-3', 2 mM AMP-PNP, 10 mM MgCl2; sitting drop, 50 mM HEPES pH 7.0, 5 mM MgCl2, 25% PEG MME 550; through-hole DNA bound complex, space group C2, 2.83 Å.
Conditions: not given
With B1, the binding result is on record as “binds”.

The next data set concerns the target Streptococcus pneumoniae topoisomerase IV ParC subunit, full length (Streptococcus pneumoniae) (UniProt P72525).
Test: not given
Conditions: not given
On to “ParE R321Q, full length (from UniProt Q59961 1-647) (enzyme)”, for which the Cleavage: ATP-independent quinolone-promoted DNA cleavage activity of topo IV reconstituted from ParC and ParE, relative to wild type was determined as 100%.
Molecule “ParE S268A, full length (from UniProt Q59961 1-647) (enzyme)” yielded a Cleavage: ATP-independent quinolone-promoted DNA cleavage activity of topo IV reconstituted from ParC and ParE, relative to wild type of 100%.
On the same count and under the same terms, to “ParE K281Q/D282A, full length (from UniProt Q59961 1-647) (enzyme)” belongs 100%; to “ParE R353A, full length (from UniProt Q59961 1-647) (enzyme)”, 100%.
With “ParE D269V, full length (from UniProt Q59961 1-647) (enzyme)”, the Cleavage: ATP-independent quinolone-promoted DNA cleavage activity of topo IV reconstituted from ParC and ParE, relative to wild type is 100%.
In the case of “ParE R396Q, full length (from UniProt Q59961 1-647) (enzyme)”, the Cleavage: ATP-independent quinolone-promoted DNA cleavage activity of topo IV reconstituted from ParC and ParE, relative to wild type came out at 100%.
“ParE R353Q, full length (from UniProt Q59961 1-647) (enzyme)” gave a Cleavage: ATP-independent quinolone-promoted DNA cleavage activity of topo IV reconstituted from ParC and ParE, relative to wild type of 100%.
Still for that read-out and setting: to “ParE R400Q, full length (from UniProt Q59961 1-647) (enzyme)” belongs 100%; to “ParE K346Q, full length (from UniProt Q59961 1-647) (enzyme)”, 100%.
Molecule “ParE K346Q/R353A, full length (from UniProt Q59961 1-647) (enzyme)” returned a Cleavage: ATP-independent quinolone-promoted DNA cleavage activity of topo IV reconstituted from ParC and ParE, relative to wild type of 100%.
In turn, “ParE K291Q, full length (from UniProt Q59961 1-647) (enzyme)” registered a Cleavage: ATP-independent quinolone-promoted DNA cleavage activity of topo IV reconstituted from ParC and ParE, relative to wild type of 100%.
Still for that read-out and setting: the result for “ParE K313Q/E316Q, full length (from UniProt Q59961 1-647) (enzyme)” reads 100%.
The same measure, in the same setting: the result for “Streptococcus pneumoniae topoisomerase IV ParE subunit, wild type, full length (from UniProt Q59961 1-647) (enzyme)” reads 100%.

In the next data set the target is T1, ParE44 (topoisomerase IV ParE ATPase domain) (Streptococcus pneumoniae, UniProt Q59961 1-402). Description: X-ray crystallography (1.97 A); AMP-PNP, Mg2+; side-bound outside the hole, two duplexes per dimer; Co-crystallization: protein:DNA 1:2.2, 10 mM MgCl2, 2 mM AMP-PNP, protein in 20 mM Tris-HCl pH 7.5, 100 mM NaCl, 1 mM 2-mercaptoethanol; 14-mer: 50 mM HEPES pH. To be noted: protein: recombinant; tags: C-terminal 6xHis; chain copies: 2; blunt; self-complementary.
Regarding B2, the binding result was “binds”.

Another data set has as its target T1, ParE44 (topoisomerase IV ParE ATPase …). Description: X-ray crystallography (2.83 A); AMP-PNP, Mg2+; DNA kinked in the dimer hole, one duplex per dimer; putative intercalated AMP-PNP; Co-crystallization: protein:DNA 1:2.2, 10 mM MgCl2, 2 mM AMP-PNP, protein in 20 mM Tris-HCl pH 7.5, 100 mM NaCl, 1 mM 2-mercaptoethanol; 14-mer: 50 mM HEPES pH. To be noted: protein: recombinant; tags: C-terminal 6xHis; chain copies: 2; blunt; self-complementary.
With B3, the binding result was “binds”.
